Data: article PMC5339707, “ACCORD: an assessment tool to determine the orientation of homodimeric coiled-coils” (Scientific Reports, 2017)
Values joined by “and” are separate entries in the source; they are usually repeats but may differ in a detail not shown here. Equal values may be shown once. Read-outs that look alike come from different tables or passages of the source.

B1: His6-SspB-LRRFIP1 (162-249) fusion protein (other, E. coli | H. sapiens, UniProt P0AFZ3 1-165, looked up)
chain: MDLSQLTPRRPYLLRAFYEWLLDNQLTPHLVVDVTLPGVQVPMEYARDGQIVLNIAPRAVGNLELANDEVRFNARFGGIPRQVSVPLAAVLAIYARENGAGTMFEPEAAYDEDTSIMNDEEASADNETVMSVIDGDKPDHDDDTHPDDEPPQPPRGGRPALRVVKDSLAEVEEKYKKAMVSNAQLDNEKTNFMYQVDTLKDMLLELEEQLAESRRQYEEKNKEFEREKHAHSILQFQFAEVKEALKQREEMLE
notes: Stringent starvation protein B (SspB), E. coli, full length, residues 1-165 (M1-K165), amplified from genomic DNA; CCD ligated behind SspB in the His6-SspB vector (BamHI at the 5' end); vector holds TEV and thrombin cleavage sites; source: E. coli BL21(DE3), purified (HisTrap, Superdex 200); not shown: His6, N-terminal, kept
B2: His6-SspB-TRIM25 (194-356) fusion protein (other, E. coli | H. sapiens, UniProt P0AFZ3 1-165, looked up)
chain: MDLSQLTPRRPYLLRAFYEWLLDNQLTPHLVVDVTLPGVQVPMEYARDGQIVLNIAPRAVGNLELANDEVRFNARFGGIPRQVSVPLAAVLAIYARENGAGTMFEPEAAYDEDTSIMNDEEASADNETVMSVIDGDKPDHDDDTHPDDEPPQPPRGGRPALRVVKASADLEATLRHKLTVMYSQINGASRALDDVRNRQQDVRMTANRKVEQLQQEYTEMKALLDASETTSTRKIKEEEKRVNSKFDTIYQILLKKKSEIQTLKEEIEQSLTKRDEFEFLEKASKLRGISTKPVYIPEVELNHKLIKGIHQSTIDLKNELKQCIGRLQ
notes: Stringent starvation protein B (SspB), E. coli, full length, residues 1-165 (M1-K165), amplified from genomic DNA; source: E. coli BL21(DE3), purified (HisTrap, Superdex 200); not shown: His6, N-terminal, kept
B3: His6-SspB-APC (2-55) fusion protein (other, E. coli | H. sapiens, UniProt P0AFZ3 1-165, looked up)
chain: MDLSQLTPRRPYLLRAFYEWLLDNQLTPHLVVDVTLPGVQVPMEYARDGQIVLNIAPRAVGNLELANDEVRFNARFGGIPRQVSVPLAAVLAIYARENGAGTMFEPEAAYDEDTSIMNDEEASADNETVMSVIDGDKPDHDDDTHPDDEPPQPPRGGRPALRVVKAAASYDQLLKQVEALKMENSNLRQELEDNSNHLTKLETEASNMKEVLKQLQGSI
notes: Stringent starvation protein B (SspB), E. coli, full length, residues 1-165 (M1-K165), amplified from genomic DNA; Adenomatous polyposis coli protein (APC), human, coiled-coil domain, residues 2-55 (A2-I55); CCD ligated behind SspB in the His6-SspB vector (BamHI at the 5' end); vector holds TEV and thrombin cleavage sites; source: E. coli BL21(DE3), purified (HisTrap, Superdex 200); not shown: …
B4: His6-SspB-MYO10 (883-933) fusion protein (other, E. coli | human, UniProt P0AFZ3 1-165, looked up)
chain: MDLSQLTPRRPYLLRAFYEWLLDNQLTPHLVVDVTLPGVQVPMEYARDGQIVLNIAPRAVGNLELANDEVRFNARFGGIPRQVSVPLAAVLAIYARENGAGTMFEPEAAYDEDTSIMNDEEASADNETVMSVIDGDKPDHDDDTHPDDEPPQPPRGGRPALRVVKENKQVEEILRLEKEIEDLQRMKEQQELSLTEASLQKLQERRDQELRRLEEE
notes: Stringent starvation protein B (SspB), E. coli, full length, residues 1-165 (M1-K165), amplified from genomic DNA; also called human MYO10 CC; source: E. coli BL21(DE3), purified (HisTrap, Superdex 200)
B5: His6-SspB-NDP52 (141-334) fusion protein (other, E. coli | H. sapiens, UniProt P0AFZ3 1-165, looked up)
chain: MDLSQLTPRRPYLLRAFYEWLLDNQLTPHLVVDVTLPGVQVPMEYARDGQIVLNIAPRAVGNLELANDEVRFNARFGGIPRQVSVPLAAVLAIYARENGAGTMFEPEAAYDEDTSIMNDEEASADNETVMSVIDGDKPDHDDDTHPDDEPPQPPRGGRPALRVVKEVEEIEQHNKELCKENQELKDSCISLQKQNSDMQAELQKKQEELETLQSINKKLELKVKEQKDYWETELLQLKEQNQKMSSENEKMGIRVDQLQAQLSTQEKEMEKLVQGDQDKTEQLEQLKKENDHLFLSLTEQRKDQKKLEQTVEQMKQNETTAMKKQQELMDENFDLSKRLSENEIICNALQRQKERLEGE
notes: as for B2
B6: His6-SspB-MDV1 (231-300) fusion protein (other, E. coli | S. cerevisiae, UniProt P0AFZ3 1-165, looked up)
chain: MDLSQLTPRRPYLLRAFYEWLLDNQLTPHLVVDVTLPGVQVPMEYARDGQIVLNIAPRAVGNLELANDEVRFNARFGGIPRQVSVPLAAVLAIYARENGAGTMFEPEAAYDEDTSIMNDEEASADNETVMSVIDGDKPDHDDDTHPDDEPPQPPRGGRPALRVVKQTLVNSLEFLNIQKNSTLSEIRDIEVEVENLRQKKEKLLGKIANIEQNQLLLEDNLKQIDDRLDFLEEYG
notes: Stringent starvation protein B (SspB), E. coli, full length, residues 1-165 (M1-K165), amplified from genomic DNA; Mitochondrial division protein 1 (MDV1), S. cerevisiae, coiled-coil domain, residues 231-300 (Q231-G300); Seen as a tetramer (main fraction) and a dimer (significant proportion); source: E. coli BL21(DE3), purified (HisTrap, Superdex 200); not shown: His6, N-terminal, kept
B7: MBP-MDV1 (231-300) fusion protein (domain or fragment, S. cerevisiae, UniProt P47025 231-300, looked up)
chain: QTLVNSLEFLNIQKNSTLSEIRDIEVEVENLRQKKEKLLGKIANIEQNQLLLEDNLKQIDDRLDFLEEYG
notes: Mitochondrial division protein 1 (MDV1), S. cerevisiae, coiled-coil domain, residues 231-300; Modified pMAL vector; the whole chain is in PDB 5JST; source: E. coli BL21(DE3), purified (amylose resin, Q-FF, Superdex 200)
B8: MBP-NDP52 (197-270) fusion protein (domain or fragment, H. sapiens, UniProt Q13137 197-270, looked up)
chain: KVKEQKDYWETELLQLKEQNQKMSSENEKMGIRVDQLQAQLSTQEKEMEKLVQGDQDKTEQLEQLKKENDHLFL
notes: Modified pMAL vector; source: E. coli BL21(DE3), purified (amylose resin, Q-FF, Superdex 200)
B9: His6-SspB-ROCK1 (535-709) fusion protein (other, E. coli | H. sapiens, UniProt P0AFZ3 1-165, looked up)
chain: MDLSQLTPRRPYLLRAFYEWLLDNQLTPHLVVDVTLPGVQVPMEYARDGQIVLNIAPRAVGNLELANDEVRFNARFGGIPRQVSVPLAAVLAIYARENGAGTMFEPEAAYDEDTSIMNDEEASADNETVMSVIDGDKPDHDDDTHPDDEPPQPPRGGRPALRVVKLANEKLSQLQKQLEEANDLLRTESDTAVRLRKSHTEMSKSISQLESLNRELQERNRILENSKSQTDKDYYQLQAILEAERRDRGHDSEMIGDLQARITSLQEEVKHLKHNLEKVEGERKEAQDMLNHSEKEKNNLEIDLNYKLKSLQQRLEQEVNEHKVTKARLTDKHQSIEEAK
notes: Stringent starvation protein B (SspB), E. coli, full length, residues 1-165 (M1-K165), amplified from genomic DNA; Rho-associated coiled-coil containing protein kinase 1 (ROCK1), human, coiled-coil domain, residues 535-709 (L535-K709); CCD ligated behind SspB in the His6-SspB vector (BamHI at the 5' end); vector holds TEV and thrombin cleavage sites; source: E. coli BL21(DE3), purified (HisTrap, …)
B10: His6-SspB-SCOC (78-159) fusion protein (other, E. coli | H. sapiens, UniProt P0AFZ3 1-165, looked up)
chain: MDLSQLTPRRPYLLRAFYEWLLDNQLTPHLVVDVTLPGVQVPMEYARDGQIVLNIAPRAVGNLELANDEVRFNARFGGIPRQVSVPLAAVLAIYARENGAGTMFEPEAAYDEDTSIMNDEEASADNETVMSVIDGDKPDHDDDTHPDDEPPQPPRGGRPALRVVKMMNADMDAVDAENQVELEEKTRLINQVLELQHTLEDLSARVDAVKEENLKLKSENQVLGQYIENLMSASSVFQTTDTKSKRK
notes: Stringent starvation protein B (SspB), E. coli, full length, residues 1-165 (M1-K165), amplified from genomic DNA; Short coiled-coil protein (SCOC), human, coiled-coil domain, residues 78-159 (M78-K159); CCD ligated behind SspB in the His6-SspB vector (BamHI at the 5' end); vector holds TEV and thrombin cleavage sites; source: E. coli BL21(DE3), purified (HisTrap, Superdex 200); not shown: His6, …
B11: His6-SspB-Ndel1 (8-99) fusion protein (other, E. coli | R. norvegicus, UniProt P0AFZ3 1-165, looked up)
chain: MDLSQLTPRRPYLLRAFYEWLLDNQLTPHLVVDVTLPGVQVPMEYARDGQIVLNIAPRAVGNLELANDEVRFNARFGGIPRQVSVPLAAVLAIYARENGAGTMFEPEAAYDEDTSIMNDEEASADNETVMSVIDGDKPDHDDDTHPDDEPPQPPRGGRPALRVVKDFSSLKEETAYWKELSLKYKQSFQEARDELVEFQEGSRELEAELEAQLVQAEQRNRDLQADNQRLKYEVEALKEKLEHQYAQSYKQVSVLED
notes: Stringent starvation protein B (SspB), E. coli, full length, residues 1-165 (M1-K165), amplified from genomic DNA; Major peak a dimer; source: E. coli BL21(DE3), purified (HisTrap, Superdex 200); not shown: His6, N-terminal, kept
B12: His6-SspB-Atg16 (58-130) fusion protein (other, E. coli | S. cerevisiae, UniProt P0AFZ3 1-165, looked up)
chain: MDLSQLTPRRPYLLRAFYEWLLDNQLTPHLVVDVTLPGVQVPMEYARDGQIVLNIAPRAVGNLELANDEVRFNARFGGIPRQVSVPLAAVLAIYARENGAGTMFEPEAAYDEDTSIMNDEEASADNETVMSVIDGDKPDHDDDTHPDDEPPQPPRGGRPALRVVKVSHDDALLNTLAILQKELKSKEQEIRRLKEVIALKNKNTERLNDELISGTIENNVLQQKLSDLKKEHSQLVAR
notes: Stringent starvation protein B (SspB), E. coli, full length, residues 1-165 (M1-K165), amplified from genomic DNA; Autophagy protein 16 (Atg16), S. cerevisiae, coiled-coil domain, residues 58-130 (V58-R130); source: E. coli BL21(DE3), purified (HisTrap, Superdex 200); not shown: His6, N-terminal, kept

Key:
[1] = target: His6-SspB-Mfn1 (660-735) fusion protein (E. coli | M. musculus) (UniProt P0AFZ3); test: SEC-MALS; self-association of His6-SspB-CCD fusion proteins (ACCORD); Superdex 200 10/300 GL, 50 mM Tris pH 8.0, 0.5 mM TCEP, 200 mM NaCl; sample 3-5 mg/ml, 0.5 ml
[2] = target: His6-SspB-TPM1 (1-98) fusion protein (E. coli | G. gallus) (UniProt P0AFZ3); test: as above
[3] = target: the molecule itself; test: as above
[4] = target: the molecule itself; test: as above; remark: listed apart in the source
[5] = target: the molecule itself; test: crystal structure; MBP-MDV1 fusion protein, hanging drop, 295 K, 100 mM sodium acetate pH 4.5, 25% PEG 3350, 100 mM CaCl2, 1.3-1.7 M sodium formate; molecular replacement
[6] = target: the molecule itself; test: SAXS; MBP fusion proteins in 50 mM Tris pH 8.0, 0.5 mM TCEP, 100 mM NaCl; MBP-NDP52 2.6 mg/ml, MBP-MDV1 9.8 mg/ml; ab initio molecular envelope

Molecule	stoichiometry N [3]	other results
His6-SspB-Mfn1 (660-735) fusion protein (from UniProt P0AFZ3 1-165; Q811U4 660-735)	–	stoichiometry N [1]: 4
His6-SspB-TPM1 (1-98) fusion protein (from UniProt P0AFZ3 1-165; P04268 1-98)	–	stoichiometry N [2]: 2
B1	2	–
B2	4	–
B3	2	–
B4	–	stoichiometry N [4]: 2
B5	2	–
B6	4 and 2	–
B7	–	binding result [5]: binds
B8	–	binding result [6]: binds
B9	2	–
B10	2	–
B11	2	–
B12	2	–
